The source of these data is paper PMC3247260.

This test addresses K63-linked diUb (UniProt P0CG48). Briefly: ITC; USP13-UBA12 (1.25 mM stock) injected into K63-, K48-, linear diUb (0.1 mM) or monoUb (0.2 mM), 25 injections of 1.5 µL; 50 mM Tris, 150 mM NaCl, pH 7.5; 25°C. On the technique in general: In ITC the heat of successive injections is recorded.

In general, Kd refers to the equilibrium constant for the complex coming apart. “tandem UBA domains of USP13 (USP13-UBA12, residues 652-776) (from UniProt Q92995 652-776) (domain or fragment)” gave a Kd of 1000 nM. This counts as single-digit micromolar.
